Data published in the nanobody polyreactivity screen of Harvey et al. (2022).

Experiment: yeast display, Sf9 membrane polyspecificity reagent, FACS + sequencing; frameworks hold sequencing errors
In short: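 Sorting gates, low and high (top ~1%), were placed on anti-HA fluorescence to track expression and on streptavidin fluorescence to track reagent binding. A clone's polyreactivity label is taken from the gate it came out of. The reagent was 10% biotinylated, detergent-solubilized Sf9 membrane, applied for 1 hour at 4 °C to galactose-induced yeast display cells.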

Sequence | polyreactivity (PSR sort gate)
QVQLVESGGGLVQAGGSLRLSCAASGFTIDDNAMGWSRQPPGKERELVAAISWSGGSTYYADSVKGRFTISRDNAKNTVYLQMNSLKPEDTAVYYCAIDVSQPKFDYWGQGTQVTVSS | low polyreactivity
QVQLVESGGGLVQAGGSLRLSCAASGFIFWDYAMGWYRQAPGKERELVAAISDSGGDTYYADSVKGRFTISRDNSKNTDYLQMNSLKPEDTAVYYCAADVELWVFRGQQYDYWGQGTQVTVSS | low polyreactivity
QDQLVESGGGLVQAGGSLRLSCAASGFTFSWNAMGWYRQSPGKERQLVAAISWSGGSTYYADSVKGRFTISRDNAKNTVYLQMNSLKPEDTAVYYCNAGSTRAASRVRYDYWGQGTQVTVSS | high polyreactivity
QVQLVESGGGLVQAGGSLRLSCAHSGSIFGQNAMGWYRHAPGKVRELVAAIRVSGGSTYYADSVKGRFTISRDNAKNTVYLQMNSLKPEDTAGYYCNARYRGYDGPITHGVTSYYWGQGTQVTVSS | low polyreactivity
QVQLVESGGGLVQAGGSLRLSCAASGRTFVPYAMGWYRQAPGKERELVAAINSGGSTYYADSVKGRFSISRDNAKNTVYLQMNSLKPEDTAVYYCAAEYWNSRFSYAYGYWGQGTQVTVSS | high polyreactivity
QVQLVESGGGLVQAGGSLRLSCAASGFIFALYTMGWYRQAPGKERELVARIRGGGRTNYADSVKGRFTISRDNAKNTVYLQMNSLKPEDTAVYYCNARKTVGMDYWGQGTQVTVSS | low polyreactivity
QVQLEESGGGLVQAGGSLRLSCAASGFTFGFYAMGWYRQAPGKERELVARISYSGGSTYYADSVKGRFTISRDNAKNTVYLQMNSLKPEDTAVYYCNRGYRRLQEDYWGQGTQVTVSS | high polyreactivity
QVQLVESGGGLVQAGGSLRLSCAASGITFTRYAMGWYRQAPGKEMEFVAAIRRSGGNTYYADSVKGRFTISRDNAKNTVYLQMNSLKPEDTAVYYCAASFRKTSPTRLVDYWGQGTQVTVSS | low polyreactivity
QVQLVESGGGLVQAGGSLRLSCAASGSTFGKNAMAWYRQAPGKERELVAAITSSGGRTYYADSVKGRFTISRDNAKNTVYLQMNSLKPEDTAVYYCNSVTRRRSLGPWPVEYDYWGQGTQVTVSS | high polyreactivity
QGHLVESGGGLVHAGGSLRLSCAASGRIFDVNAMGWYRQAPWKERELVAAISSGGNTKYADSVKGRFTISRDNAKNTVYLQMNSLKPEDTAVYYCIADGKAGGDYDYWGQGTQVTVSS | low polyreactivity
QVQLVESGGGLVQAGGSLRLSCAASGSIFQWYAMGWYRQAPGKERELVAAITISGTRTYYADSVKGRFTISRDNAKNTVYLQMNSLKPEDTAVYYCAARYTPRRYYYWGQGTQVTVSS | high polyreactivity
QVQLVESGGRLVQAGGSLRLSCAASGSTFYPYAMGWYRQAPGKERELVAAINGNGGRTYYADSVKGRFTISRDNAKNTVYLQMNSLKPEDTAVFYCAVVRVAWGHRSDYWGQGTQVTVSS | high polyreactivity
QVQLVESGGGLVQAGVSLRLSCAASGRTSAYSAMGWYRQAPGKERQLVAGITRGGRTNYADSVKGRFTISRDNAKNTVYLQMHSLKPEDTAVYYCAAKYGYYWNSRTSGYWGQGTQVTVSS | high polyreactivity
QDQLEESGGGLVQAGGSLRLSCAATGITFSSNAMGWYRQAPGKERELVAAISWSGGSTYYADSVKGRFTISRDYAKNTVYLQMNSLKPEDTAVYYCNASKHNPYGGDYWGQGTQVTVSS | high polyreactivity
QVQLVESGGGLVQAGGSLRLSCAASGYTFWDYAMGWYRQAPGKEREFVAGISFSDGGTYYADSVKGRFTITRDNAKNTVYLQMNSLKPEDTAVYYCAATYPYSWVYSGYYYWGQGTQVTVSS | low polyreactivity
QVKLVESGGGLVQAGGSLRLSCAASGSIFRRYGMGWYRQAPGKERELVAVITRGGSTYYADSVKGRFTISRDNAKNTVYLQMNSLKPEDTAVYYCNRSAGKDGQVGGQYDYWGQGTQVTVSS | high polyreactivity
QVQLEESGGGLVQAGGSLRLSCAATGILRLNAIGWYRHAPGKEREFVATISRSGGITYYADSVKGRFTISRDNAKNTVYLQMNSLKPEDTAVYYCAKGGYSLYGYWGQGTQVTVSS | high polyreactivity
QVQLVESGGGLVQAGGSLRLSCAASGRTFIFYAMGWYRQAPVKERELVAAITYSGTSTYYADSVKGRFTISRDNAKNTVYLQMNSLKPEDTAVYYCAKDGQRDANYYWGQGTQVTVSS | low polyreactivity
QVQLVESGGGLVQAGGSLRLSCAASGFIIYSYAMGWYRQAPGKERELVAVISSRGGTTYYADSVKGRFTISRDNAKNTVYLQMNSLKPEDTAVYYCARDDYGTLVKLYVRCFNYWGQGTQVTVSS | low polyreactivity
QVQLEVSAGGLVQAGGSLRLSCAASGSTFGYYAMGWYRQAPGKEWELVAAITSGASTNYSDSVKGRFTISRDNAKNSVYLQMNSLKPEDTAVYYCAAGFQTRTPLNEFDYWGQGTQVTVSS | low polyreactivity
QVQLVESGGGLVQAGGSLRLSCAASGRTLGIYAMGWYRQAPGTERELVAAITLSGSDTYYADSVKGRFTISRDNAKNTVDLQMNSLKPEDTAVYYCAAKTYGGYGKYGYWGQGTQVTVSS | low polyreactivity
QVQLVESGGGLVQAGGSLRLSCAASGSIFFAYDMGWYRQAPGKERELVAAINFDGTSTYYADSVKGRFTISRDNAKNTVYLQMNTLKPEDTAVYYCNKRVSPTYKGQYVYWGQGTQVTVSS | low polyreactivity

Sequence | polyreactivity (PSR sort gate)
QVQLVESGGGLVQAGVSLRLSCAASGFTFDYYAMGWYRQAPGKERELVAAISWSGGSTYYADSVKGRFTISRDNAKNTVFLQMNSLKPEDTAVYYCAGGRPNPRGRGLAYDFWVQGTQVTVSS | high polyreactivity
QVQLVESGGGLVQAGGSLRLSCAASGITFGPYAMGWYRQATGKERELVAAINWSGGSTYYADSVKGRFTISRDNAKTTVYLQMNSLKPEDTAVYYCAAEPYKRLYQFYFWGQGTQVTVSS | high polyreactivity
QVQLVESGGGLVQAGGSLRLSCAASGSTFRYNTMGWYRQAPGKEREFVAAISQSGGSTYYADSVKGRFTISRDNAKNTVYLQMNSLKPEDTAVYYCNARPFYATYRYRGYSWGQGTQVTVSS | high polyreactivity
QVQLVESGGGLVQAGGSLRLSCAASGSIFYGNTMGWYRQAPGKDRELVASITRPGDRTYYADSVKGRFTISRDNAKNTVYLQMNSLKPEDTAVYSCNAGLVLPPPGASIVYFDQMDYWGQGTQLTVSS | low polyreactivity
QVQLVESGGGLVQAGGSLRLSCAASGRIFRSYVMGWYRQAPGKERELVAVISKNGGTTYYADSVKGRFTISRDNAKNTVYLQMNSLKPEDTAVYYCAADFRYRSQPGWGARRNGYYWGQGTQVTVSS | high polyreactivity
QVQLVESGGGLVQAGGSLRLSCAASGSTFGYNAMGWYRQAPGKERELVASITWSSGSTYYADSVKGRFTISRDNAKNTVYLQMNSLKPEDTAVYYCAADVEYWSYEFNYWGQGTQVTVSS | low polyreactivity
QVQLEESGVGLVQAGGSLRLSWAASGFIIYINTMGWYRQAPGKERELVAAISQSGVGTSYADSVKGRFTISRDNAKNTVYLQMNRLKPEDTAVYYCATDCARSDVVDRFDYWGQGTQVTVSS | low polyreactivity
QVQLVESGGGLVQAGGSLRLSCAASGSNFDVNAMGWYRQAPGKERELVAAISDSGGSTYYADSVKGRFTISRDNAKNTVYLQMNSLKPEDTAVYYCNADWSWYNYYDFDYWGQGTQVTVSS | low polyreactivity
QVQLVESGGGLVQAGGSLRLSCAASGSTFSDNAMGWYRQAPGKEREFVAAINETGGSTYYADSVKGRFTISRDNAKNTVYVQMNSLKPEDTAVYYCNADIDPYGATYAIEYDYWGQGTQVTVSS | low polyreactivity
QVQLVESGGGLVQAGGSLRLICAASGSTFGTYAMGWYRQAPGKERELVAAISWSGGSTYYADSVKGRFTISRDNAKNTVYLQMNSLQPEDTAVYWGQGTQVTVSS | low polyreactivity
QVQLVESGGGLVQAGGSLRLSCAASGSTFYYYAMGWYRPAPGKERELVAAIRSDVSTNYADSVKGRFTISRDNAKNTVYLQMNSLKPEDTAVYYCAARFPWNRVTYDYWGQGTQVTVSS | low polyreactivity
QVQLVESGGGLVQAGGSLRFSCAASGRIFGTYAMGWYRQAPGKERELVAAITQSGGRTYYADSVKGRFTISRDNAKNTVYLQMNSLKPEDTAVYDCNKVTYRGIGLGYDYWGQGTQVTVSS | high polyreactivity
QVQLVESGGGLVQAGGSLRLSCAASGRTFAYNTMGWYRQAPGKERELVARINSGTSTYYADSVKGRFTISRDNAKNTVYLEMNSLKPEDTAVYYCAARGSDYIRWYVGGRYGYWGQGSQVTVSS | low polyreactivity
QVQLVESGGGLVQAGGSLRLSCAASGSTFYVYAMGSYRQAPGKERELVAAITRGGSTYYADSVKARFTISRDNAKNTVYLQMNSLKPEDTAVYYCAKYLTGAADLVPEYDYWGQGTQVTVSS | low polyreactivity
QVQLVESGGGLVQAGGSLRLSCAASGSTFDYYAMGWYRQAPGKERELVAAITSTGRTYYADSVKGRFTISRDNAKNTVYLQMNSLKPEDTAVYYCAADLPWGPLFDYWGQGTQVTVSS | low polyreactivity
QVQLVESGGGLVQAGGRLRLSCAASGITFPGNVMGWSRHAPGKERELVAAISSTGSTNYADSVKGRFTISRDNAKNTVYLQMNSLKPEDTAVYYCAARFWYDYRHYDYWGQGTQVTVSS | low polyreactivity
QVQLVESGGGLVQAGGSLRLSCAASGSTFYPYDMGLYRQAPGKERELVATITSTGGSTNYADSVKGRFTISRDNAQNTVYLQMNSLKPEDTAVYYCAKDWNDDQHSWDTPFDYWGQGTHVTVSS | low polyreactivity
QVQLVESGGGLVQAGGSLRLSCAASGSIFKFYTMGWYRQAPGKERELVATISRSGGGTFYADSVKGRFTISGDNSKNTVYLQMNSLKPEDTAVYYCSADPAFTHYPFGYGYWGQGTQVTVSS | low polyreactivity
QVQLVASGGGLVQAGGSLRLSCAATGSIFYINTMGWYRQAPGKERELVAAINFSDGRTYYADSVMGRFTISRDNAKNTVYLQIHSLKPEDTAVYYCAADVYPSEYDYWGQGTQVTVSS | low polyreactivity
QVQLVESGGGLVQAGGSLRLSCAASGSIFYYNAMGWYRQAPGKERELVAAISWGDGITYYADSVKGRFTISRDNAKNTVYLQMNSLKPEDTAVYYCAVDYYYLAFEYWGQGTQVTVSS | high polyreactivity
QVQLVESGGGLVQAGGSLRLSCAASGRTFTYNTMGWYRQAPGKERELVAAISSRGGRTYYADSVKGRFTISRDNAKNTVYLQLNSLKPEDTAVYACAVYGYYALTHWEYDYWGQGTQVTVSS | high polyreactivity
